What was measured:
[1] = target: FLAG-L4 (ribosomal protein L4) (Escherichia coli (expressed in BL21(DE3) rne131)) (UniProt P60723); assay: competition; conditions: EMSA: 30 C, 20 min, native 5% PAGE, ~2 ng RNA, 0.7-5.5 uM L4, buffer not given (cited method); footprinting: room temperature (25 C), RNase V1 in 1x RNA …
[2] = system: FLAG-L4 (ribosomal protein L4) (Escherichia coli (expressed in BL21(DE3) rne131)); assay: EMSA; conditions: EMSA: 30 C, 20 min, native 5% PAGE, ~2 ng RNA, 0.7-5.5 uM L4, buffer not given (cited method); footprinting: room temperature (25 C), RNase V1 in 1x RNA …

GGGGCUUAACGUCGCGUAAAUUGUUUAACACUUUGCGUAACGUACACUGGGAUCGCUGAAUUAGAGAUCGGCGUCCUUUCAUUCUAUAUACUUUGGAGUUUUAAAAUGUCUCUAAGUACUGAAGCAACAGCUAAAAUCGUUUCUGAG [rpsO-UTR RNA]
binding [1]: no binding

GGGGGCUUGUCGUAGUUGACAGCAGGUUCAAUCUGAACCUCAGUUAGCCGAAUUUGGCUACCUAACAAUGCUCCCAAUCGGGGAGCUACGUAAGAACGGUUACACUCUCCCAUCAAUCGUAAUGGGUCUGAGGAGUAAUCAUUUUCGUUUAUAAAAUAAUUGGAGCUCUGGUCUC [S10-UTR RNA]
binding [1]: binds

tnaC-tnaA transcribed spacer RNA (gel shift)
Kd [2]: 2100 nM
